For data set [1] the following is noted: 70° C and 1 atm; cited from earlier work.
For data set [2], the system named is CC(C)(COP(=O)(O)OP(=O)(O)OC[C@H]1O[C@@H](n2cnc3c(N)ncnc32)[C@H](O)[C@@H]1OP(=O)(O)O)[C@@H](O)C(=O)NCCC(=O)NCCSC(=O)CCCO. Kind of data set: 4-hydroxybutyryl-CoA dehydratase (Msed_1321), coupled spectrophotometric assay. As to conditions: other: Msed_1321, 70° C. The data set is classed as biochemical, Metallosphaera sedula. From the text:
A polypeptide having 4-hydroxybutyryl-CoA dehydratase activity means the polypeptide catalyzes the conversion of 4-hydroxybutyryl-CoA to crotonyl-CoA. The 4-hydroxybutyryl-CoA dehydratase activity of a polypeptide may be determined by routine methods known in the art. An example of such a polypeptide includes an amino acid sequence encoded by coding sequence Msed_1321 of Genbank accession NC_009440 and disclosed at SEQ ID NO:15.
Heterologous expression of M. sedula genes in E. coli. Msed_0406, Msed_1321, Msed_0399, and Msed_0656 were amplified from genomic DNA using primers from IDT Technologies (Coralville, Iowa). Msed_0406 was cloned into pET46-Ek/LIC with an N-terminal His6 tag, as described in Example 1. Msed_1321 was cloned with an N-terminal His6 tag into a modified pETA vector, into which the anaerobic hya promoter from E. coli had been inserted to allow for anaerobically-regulated expression (Sun et al., 2010. PLoS One 5:e10526). Msed_0399 was cloned into pET21b without a His-tag, and Msed_0656 was cloned into pCDF-Ek/LIC with an N-terminal His6 tag. All four constructs were individually cloned into NovaBlue GigaSingles E. coli competent cells and selected by growth on LB-agar supplemented with antibiotic. Sequences were confirmed by Eton Biosciences, Inc. (Durham, N.C.). Next, the plasmids were transformed into E. coli Rosetta 2 (DE3) cells for protein expression. Rosetta strains containing pET46-0406, pET21b-0399, and pCDF-0656 were grown and expressed aerobically at 37° C. for 16 h in Studier's auto-inducing medium ZYM-5052 (Studier, 2005. Protein Expression and Purification 41:207-234). Rosetta cells containing pETA-1321 plasmid were grown in a 2 L Applikon bioreactor (37° C., 800 rpm, pH 6.7, 0.5 slpm air) in Studier's non-inducing medium ZYM-505 with 0.5 mM FeCl3. […]
4-hydroxybutyryl-CoA dehydratase (Msed_1321). […] Enzyme activity was measured […] in a coupled spectrophotometric assay at 70° C. […]

For a further data set, the system named is O=C(O)CCCO. Kind of data set: acyl-CoA ligase activity of mutant Msed_1353-G424, discontinuous DTNB assay. The data set is classed as biochemical, Metallosphaera sedula. The note with it: other: Msed_1353-G424, 75° C., pH 7.9. From the text: In one embodiment, an example of a polypeptide having 4-hydroxybutyrate:CoA ligase activity is an amino acid sequence encoded by coding sequence Msed_1353 of Genbank accession NC_009440 and disclosed at SEQ ID NO:18, provided that the amino acid at residue 424 is not the tryptophan present in a wild type Msed_1353. In one embodiment, the amino acid at residue 424 is alanine, valine, leucine, isoleucine, or glycine. In one embodiment, the amino acid at residue 424 is alanine, valine, leucine, glycine. In one embodiment, the amino acid at residue 424 is glycine. The amino acid sequence disclosed at SEQ ID NO:18 includes the substitution of glycine for tryptophan. Another example is a polypeptide having structural similarity to the amino acid sequence SEQ ID NO:18, provided the amino acid at residue 424 is not tryptophan.
Two assays were used to measure ligase activity, one spectrophotometric and one using high-performance liquid chromatography (HPLC). A discontinuous assay was used to measure substrate-dependent disappearance of CoA at 75° C. The reaction mixture (600 μl) contained 100 mM MOPS-KOH (pH 7.9), 5 mM MgCl2, 2.5 mM ATP, 0.15 mM CoA, and purified enzyme. At each time point, 80 μl of reaction mixture was added to 80 μl cold 5,5′-dithiobis-(2-nitrobenzoic acid) (DTNB). A time point (0 min) was taken before heating. The reaction mixture was incubated for 2 min at 75° C., followed by addition of substrate. Additional time points were taken at 30, 60, 90, 120, and 180 sec after addition of substrate. Absorbance was measured at 412 nm to determine free CoA concentration, based on the concentration of 2-nitro-5-thiobenzoate dianion (NTB^2−) (ε412=14,150 M^−1 cm^−1) (Hawkins et al., 2011, ACS Catal. 1, 1043-1050, Riddles et al., 1983, Methods in Enzymology 91, 49-60). Enzymes were kinetically characterized by varying the concentration of the […] substrate from 0.05 mM to 12 mM, while the other substrate concentrations were held constant. Measurements for specific activity were taken under saturating substrate concentrations (10 mM). Formation of the CoA ester was also confirmed using HPLC (Waters). The reaction mixture (0.15 ml) contained 100 mM potassium phosphate (pH 7.9), 10 mM MgCl2, 2 mM ATP, 0.5 mM CoA, 10 mM substrate, and purified enzyme. The reaction was incubated for 3 min at 75° C., quenched with 15 μl 1M HCl, filtered with a 10 kDa spin column (Amicon YM-10) to remove the protein, and loaded onto a reversed-phase C18 silica-based column (Shodex C18-4E, 4.6×250 mm). The mobile phase was 50 mM sodium phosphate buffer (pH 6.7) with 2% methanol.
M. sedula genes encoding acyl-CoA synthetases were amplified from genomic DNA using primers synthesized by Integrated DNA Technologies (Coralville, Iowa). […]

Data set [3] is described as follows: 4-hydroxybutyrate-CoA synthetase assay (DTNB; HPLC confirmation). The format is biochemical. As to the method: A time point (0 min) was taken before heating.
The soluble, heat-treated lysate was loaded onto the column with binding buffer (50 mM sodium phosphate, 300 mM NaCl, 20 mM imidazole, pH 7.4) and the his-tagged enzyme removed with elution buffer (50 mM sodium phosphate, 300 mM NaCl, 500 mM imidazole, pH 7.4).

Substrate in data set [4]: O=C(O)CCO
Kind of data set: purified protein, by the assay type. As to conditions: other: Msed_0406, 75° C., pH 7.9; 75.0 °C.

Substrate in data set [5]: CCC(=O)O
Kind of data set: purified protein, by the assay type. The note with it: other: Msed_0406, 75° C., pH 7.9; 75.0 °C.

Substrate in data set [6]: CCCCC(=O)O
Kind of data set: purified protein, by the assay type. As to conditions: other: Msed_0406, 75° C., pH 7.9; 75.0 °C.

Substrate in data set [7]: O=C(O)CCCO
Kind of data set: purified protein, by the assay type.

Substrate in data set [8]: CC(=O)O
Kind of data set: purified protein, by the assay type. The note with it: other: Msed_0406, 75° C., pH 7.9; 75.0 °C.

Substrate in data set [9]: CCCC(=O)O
Nature of the data set: purified protein, by the assay type. As to conditions: other: Msed_0406, 75° C., pH 7.9; 75.0 °C.

A short description of data set [10]: CoA synthetase assay (DTNB), substrate propionate. The note with it: saturating substrate concentrations. The format is biochemical.
Setting [11] is: other: Msed_0406, 75° C., pH 7.9, 75.0 °C.

In brackets after ≈: the same amount, converted by molar mass.

Take `O=O` [oxygen]: in data set [1], the solubility was 600 µM (≈ 19.2 µg/mL).

On to “Metallosphaera sedula 4-hydroxybutyryl-CoA dehydratase Msed_1321, SEQ ID NO:15, recombinant (Metallosphaera sedula DSM 5348)”, for which, in data set [2], the Km came to 150 µM, the Vmax came to 2.2 µmol/min/mg and the kcat is 2.1 s⁻¹.

Take `[HH]` [hydrogen]: the solubility in data set [1] was 600 µM (≈ 1.21 µg/mL).

As for “Metallosphaera sedula acetate/propionate synthetase Msed_1353 variant Msed_1353-G424 (Trp424 to Gly, W424G), SEQ ID NO:18 (Metallosphaera sedula DSM 5348; W424G)”, in the data set on O=C(O)CCCO, the Km worked out at 1130 µM, the Vmax turned out to be 2.3 µmol/min/mg, the kcat was determined as 2.5 s⁻¹ and the specificity constant (kcat/Km) was 2180 M⁻¹ s⁻¹.

B1: Metallosphaera sedula acyl-CoA synthetase (4-hydroxybutyrate:CoA ligase) Msed_0406, SEQ ID NO:14, recombinant (Metallosphaera sedula DSM 5348) (protein)
chain: MVTVQDFFRKFIEFQNSPNEKSLQEIVKLVGQLDLRRFNWVRDVFEDIHVKERGSKTALIWRDINTGEEAKLSYHELSLMSNRVLSTLRKHGLKKGDVVYLMTKVHPMHWAVFLAVIKGGFVMVPSATNLTVAEMKYRFSDLKPSAIISDSLRASVMEEALGSLKVEKFLIDGKRETWNSLEDESSNAEPEDTRGEDVIINYFTSGTTGMPKRVIHTAVSYPVGSITTASIVGVRESDLHLNLSATGWAKFAWSSFFSPLLVGATVVGINYEGKLDTRRYLGEVENLGVTSFCAPPTAWRQFITLDLDQFRFERLRSVVSAGEPLNPEVIKIWKDKFNLTIRDFYGQTETTAMVGNFPFLKVKPGSMGKPHPLYDIRLLDDEGKEITKPYEVGHITVKLNPRPIGLFLGYSDEKKNMESFREGYYYTGDKAYFDEEGYFYFVGRGDDVIKTSDYRVGPFEVESALLEHPAVAEAAVVGVPDTVRWQLVKAYIVLKKGYMPSKELAEEIREKMKTLLSPYKVPRIIEFVDELPKTISGKIRRVELRKREEEKRKKGEVGQNEYVF
As for B1, the specific activity stood at 1.8 µmol/min/mg in data set [3] (4HB, saturating substrate concentrations) and 15.1 µmol/min/mg in data set [10]. Besides, in [3] (reversed-phase HPLC), the “production of 4HB-CoA from 4HB and CoA” value is “confirmed”. The “rate of ligation of CoA to 4HB” value in [3] (substrate 4HB) was found to be 1.69 µmol·min/mg. Further, the Km in data set [4] came to 810 µM; in data set [5], 380 µM; in data set [6], 740 µM; in data set [7] (setting [11]), 2000 µM; in data set [7] (other: Msed_0406, text), 1900 µM; in data set [8], 2030 µM. Besides, in data set [9], the Michaelis-Menten constant (Km) was 320 µM. Moreover, the Vmax in data set [4] was 2.4 µmol/min/mg; in data set [5], 15.1 µmol/min/mg; in data set [6], 5.2 µmol/min/mg; in data set [7] (setting [11]), 1.7 µmol/min/mg; in data set [8] it was 6 µmol/min/mg; in [9] it was 7.9 µmol/min/mg. Further, the kcat in data set [4] is 2.6 s⁻¹; in data set [5], 16.2 s⁻¹; in data set [6], 5.6 s⁻¹; in data set [7] (setting [11]) it was 1.8 s⁻¹; in [8], 6.4 s⁻¹; in data set [9], 8.4 s⁻¹. The specificity constant (kcat/Km) in data set [4] worked out at 3200 M⁻¹ s⁻¹; in data set [5], 43000 M⁻¹ s⁻¹; in data set [6], 7500 M⁻¹ s⁻¹; in data set [7] (setting [11]) it was 910 M⁻¹ s⁻¹; in data set [8], 3200 M⁻¹ s⁻¹; in data set [9], 26000 M⁻¹ s⁻¹.

As usually defined, the solubility is how much of the substance goes into solution per volume. Usually Km stands for the substrate concentration at which the rate is half of its maximum. As usually defined, the Vmax is the rate approached at saturating substrate. By kcat is commonly meant the maximal rate divided by the concentration of active sites. As usually defined, the kcat/Km is the turnover number divided by the Michaelis constant.

Values taken from patent US10227617B2, “Sequestration of carbon dioxide with hydrogen to useful products” (UNIVERSITY OF GEORGIA RESEARCH FOUNDATION, INC., priority 2012, dated 2019).
